# Target: hACE2-NN-Fc 5mut (human) (UniProt Q9BYF1)
# Test: SPR
substance,measurement,value
soluble monomeric SARS2-RBD (from UniProt P0DTC2) (domain or fragment),Kd,5.45 nM
